Reference: US20250276018A1 (AFFYIMMUNE THERAPEUTICS, published 2025)

Assays:
[1] = target: T1, AF647 labeled c-met protein (UniProt P08581 25-932, limits assumed, labeled with AlexaFluor 647 (AF647)); assay: flow cytometry, AF647-labeled c-met protein titrated on CAR-T cells (Round 1)
T1 construct: Soluble labeled c-met protein titrated on CAR-T cells

[2] = target: T2, c-MET on human target cells (human, UniProt P08581 25-1390); assay: cell-based or functional assay
[3] = target: T1, AF647 labeled c-met protein; assay: flow cytometry, EC50 relative to parental Affy7 CAR-T cells (Round 1)
Procedure: Binding of labeled c-MET to CAR-T cells expressing the affinity tuned c-MET scFvs was evaluated by transducing lentivirus anti-c-MET CAR particles into human T cells to form c-MET CAR-T cells incubated with AF647-labeled c-MET. […] Following a 48 hr. incubation at 37° C., the culture media was brought up to […] per well and incubated at 37° C. for 10 days.
(§1) Cells were stained on ice for 30 mins and then washed with PBS. After washing, residually bound protein on CAR T cells were measured on a flow cytometer (Beckman, CytoFLEX®). The resulting binding data was fit using a non-linear regression analysis on GraphPad Prism to calculate half effective dose concentration (EC₅₀) values. The results of this analysis are shown in FIGS. 2-5 and Tables 2-5 below.

[4] = target: T2, c-MET on human target cells; assay: cell-based or functional assay; remark: listed apart in the source
[5] = target: T1, AF647 labeled c-met protein; assay: flow cytometry, AF647-labeled c-met protein on CAR-T cells; lower end tied to Affy7-L9A by Table 2
Procedure: as §1

[6] = target: T2, c-MET on human target cells; assay: cell-based or functional assay; remark: listed apart in the source
[7] = target: T2, c-MET on human target cells; assay: cell-based or functional assay; remark: listed apart in the source

T2 sequence (P08581 25-1390): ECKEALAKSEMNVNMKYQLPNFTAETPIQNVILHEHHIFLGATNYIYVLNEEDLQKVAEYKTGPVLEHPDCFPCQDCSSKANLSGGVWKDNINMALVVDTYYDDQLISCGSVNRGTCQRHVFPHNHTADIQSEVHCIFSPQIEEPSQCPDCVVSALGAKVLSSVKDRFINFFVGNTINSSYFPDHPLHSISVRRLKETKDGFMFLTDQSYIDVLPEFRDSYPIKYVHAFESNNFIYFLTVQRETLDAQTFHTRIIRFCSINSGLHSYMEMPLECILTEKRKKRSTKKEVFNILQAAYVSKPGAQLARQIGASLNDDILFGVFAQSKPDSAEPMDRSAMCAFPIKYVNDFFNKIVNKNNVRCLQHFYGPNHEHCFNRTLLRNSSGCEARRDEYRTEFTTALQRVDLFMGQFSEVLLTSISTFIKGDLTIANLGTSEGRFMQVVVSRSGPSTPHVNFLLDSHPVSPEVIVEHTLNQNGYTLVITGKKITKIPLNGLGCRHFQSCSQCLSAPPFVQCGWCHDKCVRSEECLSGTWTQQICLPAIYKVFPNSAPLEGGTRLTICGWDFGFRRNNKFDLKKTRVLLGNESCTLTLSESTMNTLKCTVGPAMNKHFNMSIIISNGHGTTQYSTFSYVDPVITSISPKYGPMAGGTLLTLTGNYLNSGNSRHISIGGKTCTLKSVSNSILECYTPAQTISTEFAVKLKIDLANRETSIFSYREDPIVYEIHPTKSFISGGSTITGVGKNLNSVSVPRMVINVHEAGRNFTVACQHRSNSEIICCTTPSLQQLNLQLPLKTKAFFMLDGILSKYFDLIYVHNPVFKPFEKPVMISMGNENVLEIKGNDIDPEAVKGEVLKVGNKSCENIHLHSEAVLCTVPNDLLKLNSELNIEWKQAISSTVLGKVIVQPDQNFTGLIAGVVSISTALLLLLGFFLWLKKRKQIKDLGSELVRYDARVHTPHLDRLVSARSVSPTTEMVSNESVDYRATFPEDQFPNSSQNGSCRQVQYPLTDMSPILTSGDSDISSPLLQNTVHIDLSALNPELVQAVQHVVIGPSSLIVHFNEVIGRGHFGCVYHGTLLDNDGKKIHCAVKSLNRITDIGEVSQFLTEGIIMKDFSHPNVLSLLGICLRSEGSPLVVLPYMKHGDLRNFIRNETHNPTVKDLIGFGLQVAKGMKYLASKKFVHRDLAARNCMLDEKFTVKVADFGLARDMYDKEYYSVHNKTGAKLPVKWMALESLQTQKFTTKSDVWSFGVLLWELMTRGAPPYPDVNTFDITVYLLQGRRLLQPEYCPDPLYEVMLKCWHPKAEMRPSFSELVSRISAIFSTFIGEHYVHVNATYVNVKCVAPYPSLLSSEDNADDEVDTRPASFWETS
T1 sequence (P08581 25-932 limits assumed): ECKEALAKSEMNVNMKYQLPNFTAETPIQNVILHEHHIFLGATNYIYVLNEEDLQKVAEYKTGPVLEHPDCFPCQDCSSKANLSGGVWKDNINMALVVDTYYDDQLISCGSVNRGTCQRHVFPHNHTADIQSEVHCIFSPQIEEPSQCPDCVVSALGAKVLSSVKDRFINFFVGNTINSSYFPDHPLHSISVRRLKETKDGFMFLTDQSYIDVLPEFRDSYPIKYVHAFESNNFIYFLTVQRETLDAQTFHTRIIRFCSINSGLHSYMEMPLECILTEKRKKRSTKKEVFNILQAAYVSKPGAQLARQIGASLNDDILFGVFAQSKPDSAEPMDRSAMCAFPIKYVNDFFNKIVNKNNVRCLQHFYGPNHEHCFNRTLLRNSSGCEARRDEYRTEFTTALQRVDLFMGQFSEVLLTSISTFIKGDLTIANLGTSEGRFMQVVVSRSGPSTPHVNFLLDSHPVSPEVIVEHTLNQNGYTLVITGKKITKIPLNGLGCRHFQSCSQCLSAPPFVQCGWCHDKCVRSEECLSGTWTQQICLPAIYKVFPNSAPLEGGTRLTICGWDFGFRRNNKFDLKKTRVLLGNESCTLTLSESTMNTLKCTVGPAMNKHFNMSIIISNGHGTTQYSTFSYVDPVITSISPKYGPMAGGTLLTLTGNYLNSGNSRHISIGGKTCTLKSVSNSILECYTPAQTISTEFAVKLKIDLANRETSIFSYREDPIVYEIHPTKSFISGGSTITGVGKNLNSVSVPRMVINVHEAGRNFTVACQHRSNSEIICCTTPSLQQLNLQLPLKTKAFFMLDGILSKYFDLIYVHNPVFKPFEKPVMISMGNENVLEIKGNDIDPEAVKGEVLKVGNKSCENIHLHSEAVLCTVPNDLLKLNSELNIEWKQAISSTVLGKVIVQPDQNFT

B1: Affy7-L9A CAR (other)
chain: GSEQKLISEEDLGSQVQLQQSGPELVRPGASVKMSCRASGYTFTSYWLHWVKQRPGQGLEWIGMIDPSNSDTRFNPNFKDKATLNVDRSSNTAYMLLSSLTSADSAVYYCATYGSYVSPADYWGQGTSVTVSSGGGGSGGGGSGGGGSDIMMSQSPSSLTVSVGEKVTVSCKSSQSLLYTSSQKNYLAWYQQKPGQSPKLLIYWASTRESGVPDRFTGSGSGTDFTLTITSVKADDLAVYYCQQYYAYPWTFGGGTKLEIKRASTTTPAPRPPTPAPTIASQPLSLRPEACRPAAGGAVHTRGLDFACDFWVLVVVGGVLACYSLLVTVAFIIFWVRSKRSRLLHSDYMNMTPRRPGPTRKHYQPYAPPRDFAAYRSLRVKFSRSADAPAYQQGQNQLYNELNLGRREEYDVLDKRRGRDPEMGGKPRRKNPQEGLYNELQKDKMAEAYSEIGMKGERRRGKGHDGLYQGLSTATKDTYDALHMQALPPR
notes: CAR on transduced human T cells; L to A in HC CDR3; P2A remnant not included; also called MycT-Affy7-L9A CAR-SSTR2
With B1 the EC50 [1] was 1 µM, the “cytotoxicity, Normal Human Liver Cells, 8 hrs” value [2] was 13.7 and the “cytotoxicity, Normal Human Liver Cells, 16 hrs” value [2] was 24.5. The “cytotoxicity, Normal Human Liver Cells, 24 hrs” value [2] was 32.8, the “cytotoxicity, Normal Human Liver Cells, 32 hrs” value [2] was 37.9 and the “cytotoxicity, Normal Human Liver Cells, 40 hrs” value [2] was 50.1. The “cytotoxicity, Normal Human Liver Cells, 48 hrs” value [2] was 60, the “Fold Change” value [3] was 20 fold and the “cytotoxicity, Normal Human Lung Cells, 8 hrs” value [4] was 7.5. The “cytotoxicity, Normal Human Lung Cells, 16 hrs” value [4] was 20.9, the “cytotoxicity, Normal Human Lung Cells, 24 hrs” value [4] was 38.3 and the “cytotoxicity, Normal Human Lung Cells, 32 hrs” value [4] was 46.4. The “cytotoxicity, Normal Human Lung Cells, 40 hrs” value [4] was 50.7, the “cytotoxicity, Normal Human Lung Cells, 47 hrs” value [4] was 45.3 and the “fold reduction in affinity relative to the parental-expressing CARs” value [5] was 20 to 7640 fold. The “cytotoxicity, Normal Human Kidney Cells, 8 hrs” value [6] was 12.9, the “cytotoxicity, Normal Human Kidney Cells, 16 hrs” value [6] was 23.9 and the “cytotoxicity, Normal Human Kidney Cells, 24 hrs” value [6] was 30.7. For the same binder, the “cytotoxicity, Normal Human Kidney Cells, 32 hrs” value [6] was 38.8, the “cytotoxicity, Normal Human Kidney Cells, 40 hrs” value [6] was 46.9 and the “cytotoxicity, Normal Human Kidney Cells, 48 hrs” value [6] was 54.7. The “cytotoxicity, Normal Human Colon Cells, 8 hrs” value [7] was 12.1, the “cytotoxicity, Normal Human Colon Cells, 16 hrs” value [7] was 25 and the “cytotoxicity, Normal Human Colon Cells, 24 hrs” value [7] was 27.2. The “cytotoxicity, Normal Human Colon Cells, 32 hrs” value [7] was 38.2, the “cytotoxicity, Normal Human Colon Cells, 40 hrs” value [7] was 48.5 and the “cytotoxicity, Normal Human Colon Cells, 48 hrs” value [7] was 49.6.
